Laboratory results reported in US20180155451A1 (published 2018).

T1: FcγRIIa H (human, UniProt P12318 34-217)
T1 construct: extracellular domain; also called FcgRIIa H type; 2aH; not shown: His tag at the C terminus
T1 sequence (looked up): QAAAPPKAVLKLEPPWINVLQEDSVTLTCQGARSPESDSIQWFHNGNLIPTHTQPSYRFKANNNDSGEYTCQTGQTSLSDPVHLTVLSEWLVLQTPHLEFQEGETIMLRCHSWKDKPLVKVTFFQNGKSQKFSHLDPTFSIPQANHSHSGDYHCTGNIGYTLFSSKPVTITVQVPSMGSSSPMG


biological target: T1, FcγRIIa H; assay: SPR Biacore, relative binding

Row | Binder | Ho/Con_2aH
1 | GpH7-B3 variant I332_16H/GpL16-k0 (antibody, human IgG1, kappa, also called Ho Ab I332_16H) heavy: not shown light: DIVMTQSPLSLPVTPGEPASISCQASESLVHSNRNTYLHWYLQKPGQSPQLLIYKVSNRFSGVPDRFSGSGSGTDFTLKISRVEAEDVGVYYCSQNTHVPPTFGQGTKVEIERTVAAPSVFIFPPSDEQLKSGTASVVCLLNNFYPREAKVQWKVDNALQSGNSQESVTEQDSKDSTYSLSSTLTLSKADYEKHKVYACEVTHQGLSSPVTKSFNRGEC | 119 % of GpH7-B3/GpL16-k0 (=100)
2 | GpH7-B3 variant I332_15Y/GpL16-k0 (antibody, human IgG1, kappa, also called Ho Ab I332_15Y) heavy: not shown light: DIVMTQSPLSLPVTPGEPASISCQASESLVHSNRNTYLHWYLQKPGQSPQLLIYKVSNRFSGVPDRFSGSGSGTDFTLKISRVEAEDVGVYYCSQNTHVPPTFGQGTKVEIERTVAAPSVFIFPPSDEQLKSGTASVVCLLNNFYPREAKVQWKVDNALQSGNSQESVTEQDSKDSTYSLSSTLTLSKADYEKHKVYACEVTHQGLSSPVTKSFNRGEC | 126 % of GpH7-B3/GpL16-k0 (=100)
3 | GpH7-B3 variant A330_12R/GpL16-k0 (antibody, human IgG1, kappa, also called Ho Ab A330_12R) heavy: not shown light: DIVMTQSPLSLPVTPGEPASISCQASESLVHSNRNTYLHWYLQKPGQSPQLLIYKVSNRFSGVPDRFSGSGSGTDFTLKISRVEAEDVGVYYCSQNTHVPPTFGQGTKVEIERTVAAPSVFIFPPSDEQLKSGTASVVCLLNNFYPREAKVQWKVDNALQSGNSQESVTEQDSKDSTYSLSSTLTLSKADYEKHKVYACEVTHQGLSSPVTKSFNRGEC | 110 % of GpH7-B3/GpL16-k0 (=100)
4 | GpH7-B3 variant I332_04F/GpL16-k0 (antibody, human IgG1, kappa, also called Ho Ab I332_04F) heavy: not shown light: DIVMTQSPLSLPVTPGEPASISCQASESLVHSNRNTYLHWYLQKPGQSPQLLIYKVSNRFSGVPDRFSGSGSGTDFTLKISRVEAEDVGVYYCSQNTHVPPTFGQGTKVEIERTVAAPSVFIFPPSDEQLKSGTASVVCLLNNFYPREAKVQWKVDNALQSGNSQESVTEQDSKDSTYSLSSTLTLSKADYEKHKVYACEVTHQGLSSPVTKSFNRGEC | 111 % of GpH7-B3/GpL16-k0 (=100)
5 | GpH7-B3 variant I332_19Q/GpL16-k0 (antibody, human IgG1, kappa, also called Ho Ab I332_19Q) heavy: not shown light: DIVMTQSPLSLPVTPGEPASISCQASESLVHSNRNTYLHWYLQKPGQSPQLLIYKVSNRFSGVPDRFSGSGSGTDFTLKISRVEAEDVGVYYCSQNTHVPPTFGQGTKVEIERTVAAPSVFIFPPSDEQLKSGTASVVCLLNNFYPREAKVQWKVDNALQSGNSQESVTEQDSKDSTYSLSSTLTLSKADYEKHKVYACEVTHQGLSSPVTKSFNRGEC | 114 % of GpH7-B3/GpL16-k0 (=100)
6 | GpH7-B3 variant H268_10E/GpL16-k0 (antibody, human IgG1, kappa, also called Ho Ab H268_10E) heavy: not shown light: DIVMTQSPLSLPVTPGEPASISCQASESLVHSNRNTYLHWYLQKPGQSPQLLIYKVSNRFSGVPDRFSGSGSGTDFTLKISRVEAEDVGVYYCSQNTHVPPTFGQGTKVEIERTVAAPSVFIFPPSDEQLKSGTASVVCLLNNFYPREAKVQWKVDNALQSGNSQESVTEQDSKDSTYSLSSTLTLSKADYEKHKVYACEVTHQGLSSPVTKSFNRGEC | 126 % of GpH7-B3/GpL16-k0 (=100)
7 | GpH7-B3 variant I336_06M/GpL16-k0 (antibody, human IgG1, kappa, also called Ho Ab I336_06M) heavy: not shown light: DIVMTQSPLSLPVTPGEPASISCQASESLVHSNRNTYLHWYLQKPGQSPQLLIYKVSNRFSGVPDRFSGSGSGTDFTLKISRVEAEDVGVYYCSQNTHVPPTFGQGTKVEIERTVAAPSVFIFPPSDEQLKSGTASVVCLLNNFYPREAKVQWKVDNALQSGNSQESVTEQDSKDSTYSLSSTLTLSKADYEKHKVYACEVTHQGLSSPVTKSFNRGEC | 100 % of GpH7-B3/GpL16-k0 (=100)

The next lines start with the values.

Row | Ho/Con_2aH | Binder
8 | 136 % of GpH7-B3/GpL16-k0 (=100) | GpH7-B3 variant H268_09D/GpL16-k0 (antibody, human IgG1, kappa, also called Ho Ab H268_09D) heavy: not shown light: DIVMTQSPLSLPVTPGEPASISCQASESLVHSNRNTYLHWYLQKPGQSPQLLIYKVSNRFSGVPDRFSGSGSGTDFTLKISRVEAEDVGVYYCSQNTHVPPTFGQGTKVEIERTVAAPSVFIFPPSDEQLKSGTASVVCLLNNFYPREAKVQWKVDNALQSGNSQESVTEQDSKDSTYSLSSTLTLSKADYEKHKVYACEVTHQGLSSPVTKSFNRGEC
9 | 110 % of GpH7-B3/GpL16-k0 (=100) | GpH7-B3 variant H268_18N/GpL16-k0 (antibody, human IgG1, kappa, also called Ho Ab H268_18N) heavy: not shown light: DIVMTQSPLSLPVTPGEPASISCQASESLVHSNRNTYLHWYLQKPGQSPQLLIYKVSNRFSGVPDRFSGSGSGTDFTLKISRVEAEDVGVYYCSQNTHVPPTFGQGTKVEIERTVAAPSVFIFPPSDEQLKSGTASVVCLLNNFYPREAKVQWKVDNALQSGNSQESVTEQDSKDSTYSLSSTLTLSKADYEKHKVYACEVTHQGLSSPVTKSFNRGEC
10 | 117 % of GpH7-B3/GpL16-k0 (=100) | GpH7-B3 variant I332_10E/GpL16-k0 (antibody, human IgG1, kappa, also called Ho Ab I332_10E) heavy: not shown light: DIVMTQSPLSLPVTPGEPASISCQASESLVHSNRNTYLHWYLQKPGQSPQLLIYKVSNRFSGVPDRFSGSGSGTDFTLKISRVEAEDVGVYYCSQNTHVPPTFGQGTKVEIERTVAAPSVFIFPPSDEQLKSGTASVVCLLNNFYPREAKVQWKVDNALQSGNSQESVTEQDSKDSTYSLSSTLTLSKADYEKHKVYACEVTHQGLSSPVTKSFNRGEC
11 | 106 % of GpH7-B3/GpL16-k0 (=100) | GpH7-B3 variant I332_03V/GpL16-k0 (antibody, human IgG1, kappa, also called Ho Ab I332_03V) heavy: not shown light: DIVMTQSPLSLPVTPGEPASISCQASESLVHSNRNTYLHWYLQKPGQSPQLLIYKVSNRFSGVPDRFSGSGSGTDFTLKISRVEAEDVGVYYCSQNTHVPPTFGQGTKVEIERTVAAPSVFIFPPSDEQLKSGTASVVCLLNNFYPREAKVQWKVDNALQSGNSQESVTEQDSKDSTYSLSSTLTLSKADYEKHKVYACEVTHQGLSSPVTKSFNRGEC
